Test results: doi:10.1101/2021.09.16.460650 (bioRxiv, 2021)

B1: N-terminally arginylated calreticulin (natural protein, human (endogenous in DLD-1), UniProt P27797 18-417, looked up)
chain: REPAVYFKEQFLDGDGWTSRWIESKHKSDFGKFVLSSGKFYGDEEKDKGLQTSQDARFYALSASFEPFSNKGQTLVVQFTVKHEQNIDCGGGYVKLFPNSLDQTDMHGDSEYNIMFGPDICGPGTKKVHVIFNYKGKNVLINKDIRCKDDEFTHLYTLIVRPDNTYEVKIDNSQVESGSLEDDWDFLPPKKIKDPDASKPEDWDERAKIDDPTDSKPEDWDKPEHIPDPDAKKPEDWDEEMDGEWEPPVIQNPEYKGEWKPRQIDNPDYKGTWIHPEIDNPEYSPDPSIYAYDNFGVLGLDLWQVKSGTIFDNFLITNDEAYAEEFGNETWGVTKAAEKQMKDKQDEEQRLKEEEEDKKRKEEEEAEDKEDDEDKDEDEEDEEDKEEDEEEDVPGQAKDEL
modifications: arginyl group added at the mature (signal sequence removed) NH2-terminus, Glu-18
B2: calreticulin (natural protein, human (endogenous in DLD-1), UniProt P27797 18-417, looked up)
chain: EPAVYFKEQFLDGDGWTSRWIESKHKSDFGKFVLSSGKFYGDEEKDKGLQTSQDARFYALSASFEPFSNKGQTLVVQFTVKHEQNIDCGGGYVKLFPNSLDQTDMHGDSEYNIMFGPDICGPGTKKVHVIFNYKGKNVLINKDIRCKDDEFTHLYTLIVRPDNTYEVKIDNSQVESGSLEDDWDFLPPKKIKDPDASKPEDWDERAKIDDPTDSKPEDWDKPEHIPDPDAKKPEDWDEEMDGEWEPPVIQNPEYKGEWKPRQIDNPDYKGTWIHPEIDNPEYSPDPSIYAYDNFGVLGLDLWQVKSGTIFDNFLITNDEAYAEEFGNETWGVTKAAEKQMKDKQDEEQRLKEEEEDKKRKEEEEAEDKEDDEDKDEDEEDEEDKEEDEEEDVPGQAKDEL

Target: the molecule itself
Assay: non-reducing SDS-PAGE with western blot

Protein | stoichiometry N
B1 | 2
B2 | 2
